target: T1, Recombinant Human Insulin Receptor (28-956) (human, UniProt P06213 28-956); assay: SPR (BIAcore), peptide immobilized on CM5 by amine coupling, SIR as analyte 0.781-100 nM
T1 construct: range 28-956; Bought soluble receptor used as the analyte; also called soluble insulin receptor; SIR
Description: The ligand was immobilized on the sensor chip CM5 research grade (Biacore AB) by the amine coupling method. Thus, the peptide mentioned above was dissolved in 20 mM carbonate buffer (pH 8.5) (500 μg/ml), and 100 μl of the solution was passed through the flow cell at a flow rate of 5 μl/min. The amount of the peptide immobilized was 200 RU (resonance units).
Recombinant Human Insulin Receptor (28-956) (GT/TECHNE Corp.) was used as the analyte soluble insulin receptor (SIR). To 50 mg in a vial was added HBS-EP buffer (250 ml) for thorough dissolution ([…]), and the solution was 10-fold diluted to give a 100 nM solution. Eight concentration levels from 100 nM to 0.781 nM were prepared by subsequent repetitions of doubling dilution, and measurements were carried out using HBS-EP buffer (10 mM HEPES pH 7.4, 0.15M NaCl, 3 mM EDTA, 0.005% Surfactant P20) (Biacore AB) as a running solution; the rate of flow was 10 μl/min. A sensorgram was thus obtained.
Recombinant Human Insulin Receptor (28-956) (GT/TECHNE Corp.) was used as the analyte SIR. Eight concentration levels from 100 nM to 0.781 nM were prepared by subsequent repetitions of doubling dilution, which was started from diluting 100 nM solution, and measurements were carried out using HBS-EP buffer as a running solution; the rate of flow was 10 μl/min. A sensorgram was thus obtained.

Kd | Binder
24 µM | CASDIVEGIYL (Chemically synthesized; immobilized on a CM5 sensor chip by amine coupling (130 RU) for the Biacore assay; also called Peptide 15) [peptide P15]
12 µM | CQHILGSDIVEGIYL (Chemically synthesized; immobilized on a CM5 sensor chip by amine coupling (270 RU) for the Biacore assay; also called Peptide 21) [peptide P21]
1.6 µM | CASDIVEGLYIVLAER (Chemically synthesized by the Fmoc method; immobilized on a CM5 sensor chip by amine coupling (200 RU) for the Biacore assay; also called Peptide 14) [peptide P14]
